These results are taken from patent publication US6699715 (Bristol-Myers Squibb, dated 2004).

Test [1] deals with T1, L6 antigen (human, UniProt P30408 1-202).
T1 construct: whole, on cells; also called tumor associated antigen L6; L6 molecule
T1 sequence (looked up): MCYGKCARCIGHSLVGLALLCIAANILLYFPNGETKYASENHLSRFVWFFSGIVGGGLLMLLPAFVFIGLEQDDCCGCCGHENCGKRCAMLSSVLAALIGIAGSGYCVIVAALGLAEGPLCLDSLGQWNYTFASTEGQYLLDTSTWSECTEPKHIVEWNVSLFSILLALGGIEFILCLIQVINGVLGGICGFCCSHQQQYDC
The test is described as follows: flow cytometry on L6 positive H2981 tumor cells. Background: In flow cytometry, cells or beads pass a laser one at a time.

For test [2], the target named is T2, human CD28 (human, UniProt P10747 19-220).
T2 construct: whole, on cells; also called CD28 receptor; CD28 CHO cells
The test is described as follows: cell-based or functional assay.

Test [3] deals with T1, L6 antigen. As to the kind of experiment: flow cytometry on L6 positive H2981 tumor cells, FITC anti-human IgG. On the procedure: (§1) FIGS. 15a/b/c are line graphs showing that the bispecific 9.3/L6 sFvIg fusion protein binds to L6+ H2981 tumor cells and to CD28+ CHO cells. Panel 15A: L6+ H2981 tumor cells were incubated with L6 sFvIg ( - - - - ) at 0.5 μg/ml or 9.3 sFvIg ( . . . . ) at 0.5 μg/ml or 9.3/L6 sFvIg (_____) fusion protein at 0.5 μg/ml or with medium alone ( . . . . ). Panel 15B: CD28 CHO cells were incubated with 9.3 sFvIg ( - - - - ) at 1 μg/ml or 9.3/L6 sFvIg fusion protein (_____) at 1 μg/ml, or with medium alone ( . . . . ). Bound protein was detected with FITC conjugated goat anti-human IgG at 1:100. Panel 15C: CD28+ PHA blasts were incubated with FITC conjugated L6 α-idiotype mAb 13B ( . . . . ) as negative control, bispecific 9.3/L6 sFvIg at 0.5 μg/ml and bound protein detected with FITC conjugated L6 α-idiotypic mAb 13B ( - - - - ). Preincubation of cells with unlabelled 9.3 sFvIg inhibited binding of bispecific 9.3/L6 sFvIg as shown by a significant reduction in FITC-13B staining (_____). A total of 10,000 cells were analyzed per sample.
(§2) Binding activity of the 9.3 and 9.3/L6 sFvIg Fusion Protein: The binding of each sFvIg fusion protein was assayed by immunostaining and FACS analysis. […] 9.3 sFvIg and 9.3/L6 sFvIg were incubated with CD28 CHO cells and binding was detected using FITC anti-human IgG as shown in FIG. 15B. […]

Test [4] deals with T2, human CD28. As to the kind of experiment: flow cytometry on CD28 CHO cells, FITC anti-human IgG. On the procedure: as §1, §2

In turn, “bispecific 9.3/L6 sFvIg fusion protein (bispecific antibody)” showed a concentration of native L6 antibody that gives the same staining as 1 µg/ml of the fusion protein with L6 antigen [1] of 0.5 µg/mL. In the test with human CD28 [2], this molecule returned a [3H]-thymidine incorporation of PHA blasts, 9.3/L6 at 0.05 µg/ml, +H3347 of 97800 cpm; a [3H]-thymidine incorporation of PHA blasts, 9.3/L6 at 0.05 µg/ml, no H3347 cells of 4000 cpm; a [3H]-thymidine incorporation of PHA blasts, 9.3/L6 at 0.1 µg/ml, +H3347 of 115000 cpm; a [3H]-thymidine incorporation of PHA blasts, 9.3/L6 at 0.1 µg/ml, no H3347 cells of 9600 cpm. In the test with human CD28 [2], the [3H]-thymidine incorporation of PHA blasts, 9.3/L6 at 0.5 µg/ml, +H3347 was determined as 145000 cpm; the [3H]-thymidine incorporation of PHA blasts, 9.3/L6 at 0.5 µg/ml, no H3347 cells was 69200 cpm; the [3H]-thymidine incorporation of PHA blasts, untransfected H3347 preincubated with 9.3/L6 at 1 µg/ml, cells washed 3× amounted to 98000 cpm; the proliferation of T cell blasts with 9.3/L6 sFvIg alone (FIG. 16) is more than 0.1 µg/mL.
9.3 monoclonal antibody: in the test with human CD28 [2], the 3H-Thymidine incorporation, + blasts; 9.3 mAb was 58800 and the 3H-Thymidine incorporation, + blasts; 9.3 mAb + 187.1 Ab amounted to 98300.

B1: 9.3 sFvIg (scFv, not shown: small tags and cut ends)
scFv: DIVLTQSPASLAVSLGQRATISCRASESVEYYVTSLMQWYQQKPGQPPKLLIFAASNVESGVPARFSGSGSGTNFSLNIHPVDEDDVAMYFCQQSRKVPYTFGGGTKLEIKRASGGGGSGGGGSGGGGSLAQVQLKESGPGLVTPSQSLSITCTVSGFSLSDYGVHWVRQSPGQGLECLGVIWAGGGTNYNSALMSRKSISKDNSKGQVFLKMKSLQADDTAVYYCARDKGYSYYYSMDYWGQGTSVTVSS
notes: Anti-human CD28 sFv of mouse mAb 9.3 fused to human Ig; from COS or CHO cells; also called 9.3 sFvIg fusion protein; monospecific 9.3 sFvIg
For B1, the values for the binding result with L6 antigen [3] and with human CD28 [4] were “no binding (tested: 1 µg/ml)” and “binds”, respectively.
